± gives the half width of the 95% confidence interval.
assay: folding stability dG unfold from trypsin proteolysis; higher = more stable
Method in brief: (§1)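 Digests were run with trypsin and chymotrypsin at 11 concentrations in threefold dilutions, plus a no-protease condition, on designed mini-proteins in a PA-tagged cDNA display construct. The mini-proteins were under 80 residues, had no cysteine, and were kept only when AlphaFold2 dimer inter-PAE was above 15. After sequencing, Bayesian fitting of the counts gave K50, from which unfolding free energy was derived against a sequence-predicted unfolded-state K50 and a shared folded-state K50, per protease or combined.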

Sequence | folding stability dG unfold
SAGGSAGGSLMIPIPPGKPINIKFEIKNDDGHPMRITETYPVKNGYYVIRVENPNGNEQIIPFSAGGSAGGS [r12_31_TrROS] | -0.247 ± 0.15 kcal/mol
SAGGSAGGSAGGLEKLVELLAPGKPLEVLRIDPTPTYVRIVVRHPDYPVDTVILADPDVISAGGSAGGSAGG [r7_303_TrMRF] | 0.237 ± 0.046 kcal/mol
SAGGSAGGSAGKPKTLEVEMLVLDPETRRLYRVRMEIVLDPEDEGKLTIRLEIEELELPDSAGGSAGGSAGG [r17_241_TrROS_Hall] | 3.42 ± 0.081 kcal/mol
SAGGSAGGSAGSNKVVTFVPRDPATGAPLGERPIPINSSSGSEIESIKKELPPEVVEIVESAGGSAGGSAGG [r17_339_JUSTAS] | 0.605 ± 0.044 kcal/mol
SAMTLTLEIELDGVRVRLEAELELVLNEDGSLELKLKLKIEVEPLPPPKEVEVEEEEEEVEEVEFLPEESAG [r14_341_TrROS_Hall] | 3.82 ± 0.31 kcal/mol
SAGGSAGGSATITITVDGKTITLEVPEDSEVEIVFDEKTGKLFIKDKKTNKVYEVSLEELLSAGGSAGGSAG [r3_137_TrROS_Hall] | 3.58 ± 0.22 kcal/mol
SAGGKKVFTLDELKKLAEELNIEKIEVKEDEEGIYTFTFTDLAKKTGKEVTIKIVRNKNGELLVEIEPSAGG [r13_163_TrROS_Hall] | 1.78 ± 0.074 kcal/mol
SNEPPVIEIKFRIDEVQPMNGQPMIMFEITEIEDAPPEIQDLLKNGYYIMIHMPPGEPLKEGEEFEIHIFSA [r9_557_TrROS] | 1.34 ± 0.09 kcal/mol
SAGGMTITVTVGPGKEEEAVEALKKKTGLKVELVETTPRPVRAPDGTVLEEVEEITIKITKPDPNLKESAGG [r13_943_JUSTAS] | -0.511 ± 0.21 kcal/mol
SAGGSAELPSLGAEITVTEDPNRNTYTVTVPLVAPDGAPVGTLTVPFSSLEEARAFLRAQGLGELLSAGGSA [r15_127_JUSTAS] | 2.59 ± 0.031 kcal/mol
SAGGSAGGSAGGPSPSTPVTVTVTFPETGETVTLEVTDLEELRERFPDRPVEITVSPGGSAGGSAGGSAGGS [r10_1004_JUSTAS] | 2.5 ± 0.064 kcal/mol
SAGNYYRVEVENPSEGKKVTIHIFPNGMINVEHDGGEHWIMIPPDNPDQIEEIASELAPNGYEVDIEPWSAG [r5_791_TrROS] | 0.593 ± 0.11 kcal/mol
SMIVRVEGDKTTITLTLTTTTTLTDPTNPSLTTTVSKTVPRTLTLDPNDPAALAALIAALPPGAVPTIVGSA [r9_476_JUSTAS] | 0.728 ± 0.04 kcal/mol
SAGYIIGYPIIEELFNAGKPEEIRKILKEAVEKDPDKIIIIEVPENPEIAKAIEEAFKEEGIPLIIIPESAG [r14_236_TrMRF] | 1.02 ± 0.035 kcal/mol
SAGGAKIKFDIEPTNNTIRVKIEIWLPGGPVEIVEEEPVRVDPNGGIWISFRIRYPDGKPQEFQIPISAGGS [r8_449_TrROS] | 2.62 ± 0.057 kcal/mol
SAGGSAGGSAGSSSISRETFDPETGLRYVYDPETDTITVIDLSNNKVVKTTPVGPEELERSAGGSAGGSAGG [r17_271_JUSTAS] | 0.244 ± 0.068 kcal/mol
SAGGSAGGSAGSMTVTVTGGGVSVEVYPETGLVRVRSPSGSETLVDIATGEVVRREPAAASAGGSAGGSAGG [r11_149_JUSTAS] | 0.631 ± 0.047 kcal/mol
SMITIPYNIQTDPSQAEKLAEEIAKEVEEKYGLKVVGVELVEWVPAPDGSESSVKVEIKIEAPDPKNILLSA [r9_302_JUSTAS] | 0.614 ± 0.031 kcal/mol
SAGDVPVPATFEVELPGDGTARVTVVRHPGAAPGGFDTVRVEFRPGPTSSVTLTYRVPPGSAPVPFLGGSAG [r5_47_TrMRF] | 0.535 ± 0.16 kcal/mol
SAGGSAGGSAGGEAFEVERVELVLDPETGTPYLLVYFRDGRVLVYDLPRGTWRVVPAEELSAGGSAGGSAGG [r11_922_TrMRF] | 2.21 ± 0.049 kcal/mol
SAGGSAGGSDVSEEELRAIAEEIAAELGLSDITVEVEKLPTAVVRITITNPATGETIEIEVPESAGGSAGGS [r12_1000_JUSTAS] | 1.75 ± 0.038 kcal/mol

assay: folding stability dG unfold (combined trypsin and chymotrypsin); higher = more stable
Method in brief: as §1

Sequence | folding stability dG unfold
SAGMTTTLTKGEDGVTLTFDLPGQSVTLTVPVPPDVEVTTSFPATGTTITGTPVGDTLTITVTVPAPASAGG [r19_384_JUSTAS] | 1.69 ± 0.038 kcal/mol
SSEILEKLAKELPDLEPVGVEEEPLPDGGRRLTLVARRPETGTYVRVTVDVPPGGGVASVEVEEVPVSRLSA [r9_274_JUSTAS] | 1.77 ± 0.054 kcal/mol
SVPYGVTDVTFEPEKNTATVTAPRPDPSAPVAVGDKKGESVSVTSEVDTAAGTLTVTVPTTAPGNVTVDVPS [r1_138_JUSTAS] | 0.133 ± 0.12 kcal/mol
SAGGKKKKVVIKLPSTNKAVEAELVSVKKGKNKYYLEIKLPNGKKYKFPLEVIGDFKWDEGEGTLEVPSAGG [r13_211_TrMRF] | 2.66 ± 0.11 kcal/mol
SAGGSAGGSAGGGVVTLPDLKGLSEEELKALAEEIAKKLGLENVPLKLEFGEDGNLTLVLSAGGSAGGSAGG [r7_810_JUSTAS] | 1.74 ± 0.11 kcal/mol
SAMKTIEIEIELDELKNLTPEELEEKAKELAEELAKKLAEEKGLEVVSVKVEVVEKDGKLVVKVTVEVKSAG [r14_310_TrROS_Hall] | 3.66 ± 0.71 kcal/mol
SAGGSAGGSMTVTVRRVYFPPNLAEGMTVEELRKKLGVPDLPVLVVDVEVTLTPEELEALLKESAGGSAGGS [r12_178_TrMRF] | 1.97 ± 0.05 kcal/mol
SAGGEISPEDIKELEIYPIPPEDAQKNGYIMIEIKGPGGKPIAQIMIPVRVPKVKDKDGKPMDLEDMNSAGG [r13_864_TrROS] | 1.32 ± 0.22 kcal/mol
SAGGSAEITEIEIEEEGGRLRVRATVTNENGETFEFEAEIELPPPPPPEEVTLERDPETDEWKEVTSAGGSA [r15_335_TrROS_Hall] | 2.22 ± 0.12 kcal/mol
SAGGSAGGSAGGIGPEIVEAALIEAKEKVPEDEEVEILVRDPVTGEVLRLRIYPDRVELGSAGGSAGGSAGG [r7_44_TrMRF] | 0.698 ± 0.19 kcal/mol
